Reference: patent US20210388087A1 (Chugai, published 2021)
Residue numbers refer to the chain shown, from its start. In names and notes the source's numbering stands. One block for each binder: values may come before it.

Biological target: T1, Human CD3eg linker (human)
T1 construct: single-chain construct; also called recombinant human CD3
T1 chain: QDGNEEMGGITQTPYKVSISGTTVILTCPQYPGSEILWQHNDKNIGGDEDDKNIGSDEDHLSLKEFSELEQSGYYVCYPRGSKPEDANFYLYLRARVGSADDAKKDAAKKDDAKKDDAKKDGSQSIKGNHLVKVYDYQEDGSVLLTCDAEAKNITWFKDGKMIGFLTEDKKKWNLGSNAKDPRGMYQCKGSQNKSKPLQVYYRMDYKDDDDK
Experiment: SPR, vs unmutated H183/L072

B1: dBBDu183H S100aY/dBBDu072L (antibody, name in Kabat numbering, V domains shown)
VH: QVQLVESGGGLVQPGRSLRLSCAASGFTFSNAWMHWVRQAPGKGLEWVAQIKDKGNAYAAYYAPSVKGRFTISRDDSKNSIYLQMNSLKTEDTAVYYCHYVHYASAYTVLPAFGVDAWGQGTTVTVSS
VL: DIVMTQSPLSLPVTPGEPASISCQASQELVHMNRNTYLHWYQQKPGQAPRLLIYKVSNRFPGVPDRFSGSGSGTDFTLKISRVEAEDVGVYYCAQGTSVPFTFGQGTKLEIK
- fold change of affinity: 1.2 fold

B2: dBBDu183H V63N/dBBDu072L (antibody, name in Kabat numbering, V domains shown)
VH: B1 VH with V66N, Y107S
VL: B1 VL
- fold change of affinity: 1.3 fold

B3: dBBDu183H T100bN/dBBDu072L (antibody, name in Kabat numbering, V domains shown)
VH: B1 VH with Y107S, T108N
VL: B1 VL
- fold change of affinity: 1 fold

B4: dBBDu183H T100bY/dBBDu072L (antibody, name in Kabat numbering, V domains shown)
VH: B1 VH with Y107S, T108Y
VL: B1 VL
- fold change of affinity: 1.8 fold

B5: dBBDu183H T100bE/dBBDu072L (antibody, name in Kabat numbering, V domains shown)
VH: B1 VH with Y107S, T108E
VL: B1 VL
- fold change of affinity: 0.6 fold

B6: dBBDu183H V63G/dBBDu072L (antibody, name in Kabat numbering, V domains shown)
VH: B1 VH with V66G, Y107S
VL: B1 VL
- fold change of affinity: 1 fold

B8: dBBDu183H T100bH/dBBDu072L (antibody, name in Kabat numbering, V domains shown)
VH: B1 VH with Y107S, T108H
VL: B1 VL
- fold change of affinity: 1.2 fold

B9: dBBDu183H V63Q/dBBDu072L (antibody, name in Kabat numbering, V domains shown)
VH: B1 VH with V66Q, Y107S
VL: B1 VL
- fold change of affinity: 1.2 fold

B10: dBBDu183H V95D/dBBDu072L (antibody, name in Kabat numbering, V domains shown)
VH: B1 VH with V101D, Y107S
VL: B1 VL
- fold change of affinity: 0 fold

B12: dBBDu183H T100bW/dBBDu072L (antibody, name in Kabat numbering, V domains shown)
VH: B1 VH with Y107S, T108W
VL: B1 VL
- fold change of affinity: 1.8 fold

B17: dBBDu183H T100bD/dBBDu072L (antibody, name in Kabat numbering, V domains shown)
VH: B1 VH with Y107S, T108D
VL: B1 VL
- fold change of affinity: 0.6 fold

B20: dBBDu183H V63Y/dBBDu072L (antibody, name in Kabat numbering, V domains shown)
VH: B1 VH with V66Y, Y107S
VL: B1 VL
- fold change of affinity: 1.1 fold

B21: dBBDu183H T100bG/dBBDu072L (antibody, name in Kabat numbering, V domains shown)
VH: B1 VH with Y107S, T108G
VL: B1 VL
- fold change of affinity: 1.1 fold

B22: dBBDu183H T100bQ/dBBDu072L (antibody, name in Kabat numbering, V domains shown)
VH: B1 VH with Y107S, T108Q
VL: B1 VL
- fold change of affinity: 1.1 fold

B23: dBBDu183H V63R/dBBDu072L (antibody, name in Kabat numbering, V domains shown)
VH: B1 VH with V66R, Y107S
VL: B1 VL
- fold change of affinity: 1.2 fold

B24: dBBDu183H T100bS/dBBDu072L (antibody, name in Kabat numbering, V domains shown)
VH: B1 VH with Y107S, T108S
VL: B1 VL
- fold change of affinity: 1.5 fold

B25: dBBDu183H V63T/dBBDu072L (antibody, name in Kabat numbering, V domains shown)
VH: B1 VH with V66T, Y107S
VL: B1 VL
- fold change of affinity: 1.2 fold

B26: dBBDu183H V63D/dBBDu072L (antibody, name in Kabat numbering, V domains shown)
VH: B1 VH with V66D, Y107S
VL: B1 VL
- fold change of affinity: 1.3 fold

B27: dBBDu183H T100bV/dBBDu072L (antibody, name in Kabat numbering, V domains shown)
VH: B1 VH with Y107S, T108V
VL: B1 VL
- fold change of affinity: 1.2 fold

B30: dBBDu183H T100bR/dBBDu072L (antibody, name in Kabat numbering, V domains shown)
VH: B1 VH with Y107S, T108R
VL: B1 VL
- fold change of affinity: 1.8 fold

B32: dBBDu183H V63W/dBBDu072L (antibody, name in Kabat numbering, V domains shown)
VH: B1 VH with V66W, Y107S
VL: B1 VL
- fold change of affinity: 0.8 fold

B34: dBBDu183H V63F/dBBDu072L (antibody, name in Kabat numbering, V domains shown)
VH: B1 VH with V66F, Y107S
VL: B1 VL
- fold change of affinity: 1.1 fold

B35: dBBDu183H T100bF/dBBDu072L (antibody, name in Kabat numbering, V domains shown)
VH: B1 VH with Y107S, T108F
VL: B1 VL
- fold change of affinity: 1.2 fold

B37: dBBDu183H V63S/dBBDu072L (antibody, name in Kabat numbering, V domains shown)
VH: B1 VH with V66S, Y107S
VL: B1 VL
- fold change of affinity: 1.1 fold

B38: dBBDu183H V63K/dBBDu072L (antibody, name in Kabat numbering, V domains shown)
VH: B1 VH with V66K, Y107S
VL: B1 VL
- fold change of affinity: 1.3 fold

B41: dBBDu183H T100bK/dBBDu072L (antibody, name in Kabat numbering, V domains shown)
VH: B1 VH with Y107S, T108K
VL: B1 VL
- fold change of affinity: 1.3 fold

B44: dBBDu183H V63E/dBBDu072L (antibody, name in Kabat numbering, V domains shown)
VH: B1 VH with V66E, Y107S
VL: B1 VL
- fold change of affinity: 1.1 fold

B45: dBBDu183H V63H/dBBDu072L (antibody, name in Kabat numbering, V domains shown)
VH: B1 VH with V66H, Y107S
VL: B1 VL
- fold change of affinity: 1 fold

Now from value to binder:

- fold change of affinity: 0 fold
B7: dBBDu183H V95F/dBBDu072L (antibody, name in Kabat numbering, V domains shown)
VH: B1 VH with V101F, Y107S
VL: B1 VL

- fold change of affinity: 1.2 fold
B11: dBBDu183H V100cH/dBBDu072L (antibody, name in Kabat numbering, V domains shown)
VH: B1 VH with Y107S, V109H
VL: B1 VL

- fold change of affinity: 1.8 fold
B13: dBBDu183H V100cF/dBBDu072L (antibody, name in Kabat numbering, V domains shown)
VH: B1 VH with Y107S, V109F
VL: B1 VL

- fold change of affinity: 0 fold
B14: dBBDu183H V95Q/dBBDu072L (antibody, name in Kabat numbering, V domains shown)
VH: B1 VH with V101Q, Y107S
VL: B1 VL

- fold change of affinity: 0 fold
B15: dBBDu183H V95Y/dBBDu072L (antibody, name in Kabat numbering, V domains shown)
VH: B1 VH with V101Y, Y107S
VL: B1 VL

- fold change of affinity: 0 fold
B16: dBBDu183H V95K/dBBDu072L (antibody, name in Kabat numbering, V domains shown)
VH: B1 VH with V101K, Y107S
VL: B1 VL

- fold change of affinity: 1.5 fold
B18: dBBDu183H V100cG/dBBDu072L (antibody, name in Kabat numbering, V domains shown)
VH: B1 VH with Y107S, V109G
VL: B1 VL

- fold change of affinity: 0 fold
B19: dBBDu183H V95N/dBBDu072L (antibody, name in Kabat numbering, V domains shown)
VH: B1 VH with V101N, Y107S
VL: B1 VL

- fold change of affinity: 0 fold
B28: dBBDu183H V95H/dBBDu072L (antibody, name in Kabat numbering, V domains shown)
VH: B1 VH with V101H, Y107S
VL: B1 VL

- fold change of affinity: 0 fold
B29: dBBDu183H V95G/dBBDu072L (antibody, name in Kabat numbering, V domains shown)
VH: B1 VH with V101G, Y107S
VL: B1 VL

- fold change of affinity: 0.8 fold
B31: dBBDu183H V100cE/dBBDu072L (antibody, name in Kabat numbering, V domains shown)
VH: B1 VH with Y107S, V109E
VL: B1 VL

- fold change of affinity: 0 fold
B33: dBBDu183H V95E/dBBDu072L (antibody, name in Kabat numbering, V domains shown)
VH: B1 VH with V101E, Y107S
VL: B1 VL

- fold change of affinity: 0 fold
B36: dBBDu183H V95T/dBBDu072L (antibody, name in Kabat numbering, V domains shown)
VH: B1 VH with V101T, Y107S
VL: B1 VL

- fold change of affinity: 0 fold
B39: dBBDu183H V95R/dBBDu072L (antibody, name in Kabat numbering, V domains shown)
VH: B1 VH with V101R, Y107S
VL: B1 VL

- fold change of affinity: 0 fold
B40: dBBDu183H V95S/dBBDu072L (antibody, name in Kabat numbering, V domains shown)
VH: B1 VH with V101S, Y107S
VL: B1 VL

- fold change of affinity: 0 fold
B42: dBBDu183H V95W/dBBDu072L (antibody, name in Kabat numbering, V domains shown)
VH: B1 VH with V101W, Y107S
VL: B1 VL

- fold change of affinity: 0.8 fold
B43: dBBDu183H V100cD/dBBDu072L (antibody, name in Kabat numbering, V domains shown)
VH: B1 VH with Y107S, V109D
VL: B1 VL
